Target: T1, NAA10^R4S-3xFLAG (human, UniProt P41227 1-235, R4S)
T1 sequence: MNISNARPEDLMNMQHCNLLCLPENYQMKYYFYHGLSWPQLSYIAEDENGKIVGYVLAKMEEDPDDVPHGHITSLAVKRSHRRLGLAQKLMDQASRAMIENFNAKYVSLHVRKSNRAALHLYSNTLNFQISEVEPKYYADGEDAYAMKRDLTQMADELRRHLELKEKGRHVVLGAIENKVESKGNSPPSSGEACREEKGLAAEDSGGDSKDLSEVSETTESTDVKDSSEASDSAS
Assay: co-IP

binding capacity relative to WT: 0.5 relative to WT (WT = 1.0)
B1: NAA15 (natural protein)
chain: MPAVSLPPKENALFKRILRCYEHKQYRNGLKFCKQILSNPKFAEHGETLAMKGLTLNCLGKKEEAYELVRRGLRNDLKSHVCWHVYGLLQRSDKKYDEAIKCYRNALKWDKDNLQILRDLSLLQIQMRDLEGYRETRYQLLQLRPAQRASWIGYAIAYHLLEDYEMAAKILEEFRKTQQTSPDKVDYEYSELLLYQNQVLREAGLYREALEHLCTYEKQICDKLAVEETKGELLLQLCRLEDAADVYRGLQERNPENWAYYKGLEKALKPANMLERLKIYEEAWTKYPRGLVPRRLPLNFLSGEKFKECLDKFLRMNFSKGCPPVFNTLRSLYKDKEKVAIIEELVVGYETSLKSCRLFNPNDDGKEEPPTTLLWVQYYLAQHYDKIGQPSIALEYINTAIESTPTLIELFLVKAKIYKHAGNIKEAARWMDEAQALDTADRFINSKCAKYMLKANLIKEAEEMCSKFTREGTSAVENLNEMQCMWFQTECAQAYKAMNKFGEALKKCHEIERHFIEITDDQFDFHTYCMRKITLRSYVDLLKLEDVLRQHPFYFKAARIAIEIYLKLHDNPLTDENKEHEADTANMSDKELKKLRNKQRRAQKKAQIEEEKKNAEKEKQQRNQKKKKDDDDEEIGGPKEELIPEKLAKVETPLEEAIKFLTPLKNLVKNKIETHLFAFEIYFRKEKFLLMLQSVKRAFAIDSSHPWLHECMIRLFNTAVCESKDLSDTVRTVLKQEMNRLFGATNPKNFNETFLKRNSDSLPHRLSAAKMVYYLDPSSQKRAIELATTLDESLTNRNLQTCMEVLEALYDGSLGDCKEAAEIYRANCHKLFPYALAFMPPGYEEDMKITVNGDSSAEAEELANEI

Source: article PMC12000442 (Nature Communications, 2025)
